Results: paper PMC8184817, “Transmission of light signals from the light-oxygen-voltage core via the hydrophobic region of the β-sheet surface in aureochrome-1” (Scientific Reports, 2021)

B1: Photozipper (PZ), N-terminally truncated aureochrome-1 of Vaucheria frigida, wild type [Vaucheria frigida] / itself (parent)
chain: GSISSELTEAQKVERRERNREHAKRSRVRKKFLLESLQQSVNELNHENNSLKESIREHLGPRGDSLIAQSSPEADTLLTDNPSKANRILEDPDYSLVKALQMAQQNFVITDASLPDNPIVYASRGFLTLTGYSLDQILGRNCRFLQGPETDPRAVDKIRNAITKGVDTSVCLLNYRQDGTTFWNLFFVAGLRDSKGNIVNYVGVQSKVSEDYAKLLVNEQNIEYKGVRTSNMLRRK

Variants of: B1
Test: DLS
Details: with itself

Row | hydrodynamic size (D (dark) state) | hydrodynamic size (L (light) state) | Variant
1 | 3.05 nm | 3.86 nm | GSISSELTEAQKVERRERNREHAKRSRVRKKFLLESLQQSVNELNHENNSLKESIREHLGPRGDSLIAQSSPEADTLLTDNPSKANRIAEDPDYSAVKAAQMAQQNFVITDASLPDNPIVYASRGFLTLTGYSLDQILGRNCRFLQGPETDPRAVDKIRNAITKGVDTSVCLLNYRQDGTTFWNLFFVAGLRDSKGNIVNYVGVQSKVSEDYAKLLVNEQNIEYKGVRTSNMLRRK [chain 1 L89A L96A L100A]
2 | 3.18 nm | 3.88 nm | GSISSELTEAQKVERRERNREHAKRSRVRKKFLLESLQQSVNELNHENNSLKESIREHLGPRGDSLIAQSSPEADTLLTDNPSKANRILEDPDYSLVKAAQMAQQNFVITDASLPDNPIVYASRGFLTLTGYSLDQILGRNCRFLQGPETDPRAVDKIRNAITKGVDTSVCLLNYRQDGTTFWNLFFVAGLRDSKGNIVNYVGVQSKVSEDYAKLLVNEQNIEYKGVRTSNMLRRK [chain 1 L100A]
